Test system: T1, cbz-FAF[125I]Y-NH2
T1 sequence: FAFY

B1: papain (enzyme, UniProt P00784 134-345, looked up)
Papain: IPEYVDWRQKGAVTPVKNQGSCGSCWAFSAVVTIEGIIKIRTGNLNEYSEQELLDCDRRSYGCNGGYPWSALQLVAQYGIHYRNTYPYEGVQRYCRSREKGPYAAKTDGVRQVQPYNEGALLYSIANQPVSVVLEAAGKDFQLYRGGIFVGPCGNKVDHAVAAVGYGPNYILIKNSWGTGWGENGYIRIKRGTGNSYGVCGLYTSSFYPVKN
  Amount necessary to degrade 50% of substrate in 30 min: 2 µg

From patent US6960559
